Assay results: patent publication US10918726B2, “Carbosilane dendrimer and aggregatable carrier obtained using said dendrimer for drug delivery system” (Quarrymen & Co. Inc., priority 2014, dated 2021)

Assay: Particle size of raw materials and micelles by dynamic light scattering (DLS, ZETASIZER NANO-S)
Type: physicochemical
Details: for particle size: DLS after overnight incubation at 37° C., measured at 25° C.; for Particle diameter peak by number / Particle diameter peak by scattering intensity / Zeta Average (average particle diameter): Table 1, raw materials and products in PBS, measured 5 times at 25° C.
Method: After vortex, the solution was stood at 37° C. for overnight incubation to bind GFP and the silole dendrimer, and subsequently to form the micelles. The incubation time for this experiment was about 16 to 18 hours. The properties of the micelle particles in the solution were measured by using dynamic light scattering method (DLS; Dynamic light scattering).
Also, the particle size in the reaction mixture was measured at 25° C. by using ZETASIZER NANO-S(manufactured by Malvern Instrument Ltd.) with a laser beam wavelength of 532 nm.
It was measured whether the micelles including each drug are formed in the sample to which each model drug is added; and if the micelles including the drug are formed, their particle size were measured by using the dynamic light scattering method. Here, DiI, Oil orange SS, and goat anti mouse IgG-Alexa 610 were used as drug models.
The particle properties of the target peptide sequence-binding micelle were measured by a dynamic light scattering method as the same as used in the example 1 (see FIG. 11). […] As a result, the particles having the particle size of about 100 nm to 200 nm were confirmed as the same as those in the example 1.

Compound | particle size | Particle diameter peak by number [nm] | Particle diameter peak by scattering intensity [nm] | Zeta Average (average particle diameter) [nm]
20 μM GFP only: green fluorescent protein, SEQ ID NO: 1, cysteine at position 251, cysteine 60 replaced with serine | about 4 nm | 4.682 | 838.8 | 860.7
C[Si](C)(CCC[Si](CCCBr)(CCCBr)CCCBr)CCC[Si](CCCBr)(CCCBr)CCCBr [50 μM Silole only] | about 650 nm | 649.3 | 664.6 | 894.5
